Data as given in article PMC8857464.

Substrate: C[C@H](N)C(=O)O
Test: purified protein
Settings: nonoxidized enzyme (no H2O2), amino acid activation, 2 mM ATP, 2 mM PPi, 10 mM MgCl2, pH 7.2, 37 °C

B1: AlaRS (Escherichia coli K-12) (protein)
chain: SKSTAEIRQAFLDFFHSKGHQVVASSSLVPHNDPTLLFTNAGMNQFKDVFLGLDKRNYSRATTSQRCVRAGGKHNDLENVGYTARHHTFFEMLGNFSFGDYFKHDAIQFAWELLTSEKWFALPKERLWVTVYESDDEAYEIWEKEVGIPRERIIRIGDNKGAPYASDNFWQMGDTGPCGPCTEIFYDHGDHIWGGPPGSPEEDGDRYIEIWNIVFMQFNRQADGTMEPLPKPSVDTGMGLERIAAVLQHVNSNYDIDLFRTLIQAVAKVTGATDLSNKSLRVIADHIRSCAFLIADGVMPSNENRGYVLRRIIRRAVRHGNMLGAKETFFYKLVGPLIDVMGSAGEDLKRQQAQVEQVLKTEEEQFARTLERGLALLDEELAKLSGDTLDGETAFRLYDTYGFPVDLTADVCRERNIKVDEAGFEAAMEEQRRRAREASGFGADYNAMIRVDSASEFKGYDHLELNGKVTALFVDGKAVDAINAGQEAVVVLDQTPFYAESGGQVGDKGELKGANFSFAVEDTQKYGQAIGHIGKLAAGSLKVGDAVQADVDEARRARIRLNHSATHLMHAALRQVLGTHVSQKGSLVNDKVLRFDFSHNEAMKPEEIRAVEDLVNTQIRRNLPIETNIMDLEAAKAKGAMALFGEKYDERVRVLSMGDFSTELCGGTHASRTGDIGLFRIISESGTAAGVRRIEAVTGEGAIATVHADSDRLSEVAHLLKGDSNNLADKVRSVLERTRQLEKELQQLKEQAAAQESANLSSKAIDVNGVKLLVSELSGVEPKMLRTMVDDLKNQLGSTIIVLATVVEGKVSLIAGVSKDVTDRVKAGELIGMVAQQVGGKGGGRPDMAQAGGTDAAALPAALASVKGWVSAKLQ
Km: 329 ± 84.6 µM
kcat: 16 s⁻¹
kcat/Km: 48300 M⁻¹ s⁻¹
